Values joined by “and” are separate entries in the source; they are usually repeats but may differ in a detail not shown here. Equal entries are not always repeated.
Biological target: the molecule itself
Test: SDS-PAGE and anti-Adh1p western blot of SDS-resistant oligomers; crude extracts of T73 cells (dehydrated, grown 5 h in YPGF, or fresh with or without 5 mM glyoxal), 10% SDS-polyacrylamide gel under denaturing conditions, polyclonal anti-Adh1p

B1: alcohol dehydrogenase I (Adh1p) (enzyme, S. cerevisiae (endogenous in strain T73), UniProt P00330 1-348, looked up)
chain: MSIPETQKGVIFYESHGKLEYKDIPVPKPKANELLINVKYSGVCHTDLHAWHGDWPLPVKLPLVGGHEGAGVVVGMGENVKGWKIGDYAGIKWLNGSCMACEYCELGNESNCPHADLSGYTHDGSFQQYATADAVQAAHIPQGTDLAQVAPILCAGITVYKALKSANLMAGHWVAISGAAGGLGSLAVQYAKAMGYRVLGIDGGEGKEELFRSIGGEVFIDFTKEKDIVGAVLKATDGGAHGVINVSVSEAAIEASTRYVRANGTTVLVGMPAGAKCCSDVFNQVVKSISIVGSYVGNRADTREALDFFARGLVKSPIKVVGLSTLPEIYEKMEKGQIVGRYVVDTSK
modifications: oxidative carbonylation of the dimer, tetramer and higher bands (residues not stated)
notes: Alcohol dehydrogenase I (Adh1p) of Saccharomyces cerevisiae, subunit of approximately 37 kDa; Endogenous protein of an industrial wine strain; source: endogenous, S. cerevisiae wine strain T73 (and TTRX2), crude cell extracts
Q: Which “stoichiometry N” value does the source give for B1 here?
A: 2 and 4
